This note sets out measurements from patent publication US20230181750A1 (CRISPR THERAPEUTICS, published 2023).

The chains are these.
B1: mask peptide M3 (peptide)
peptide: CTMPPSPRSKVIC
notes: Selected by phage display (Screen 2, XnCXnCXn library)
B2: mask peptide P2 (peptide)
peptide: HEEVHMRPNKLSLTWAYTGPQLR
notes: Selected by phage display (Screen 1, X15/X19 library)
B3: mask peptide P1 (peptide)
peptide: EVAPGKRWFYNHVKQVPHLV
notes: as for B2

In one assay the target is T1, anti-PTK7 antibody Ab181.
T1 construct: also called unmasked antibody
Put plainly: phage display selection against Ab181, XnCXnCXn library.
CYIGLRMVPCFHM (Selected by phage display (Screen 2)) [mask peptide M10]: the binding result is given as “binds”.
Regarding CHIGKRPVPCLWI (Selected by phage display (Screen 2)) [mask peptide M9], the binding result is listed as “binds”.
For VCTYPPAHRTRFC (Selected by phage display (Screen 2)) [mask peptide M6], the binding result was “binds”.
Still for that read-out and setting: the entry for CTYPPRFHMHWLC (Selected by phage display (Screen 2)) [mask peptide M13] is “binds”; for B1 it is “binds”; for CTYPSWVAYIRFC (Selected by phage display (Screen 2)) [mask peptide M5] it is “binds”.
The same measure, in the same setting: with CTFPNTTMQRTFC (Selected by phage display (Screen 2)) [mask peptide M4] the entry was “binds”; with CTMPVHTYSQWLC (Selected by phage display (Screen 2)) [mask peptide M12], “binds”; with CTMPSHAVASFLC (Selected by phage display (Screen 2)) [mask peptide M11], “binds”.
Regarding WCTIPSSMSIRLC (Selected by phage display (Screen 2)) [mask peptide M8], the binding result is reported as “binds”.
For CTHVAQWAIKAFC (Selected by phage display (Screen 2)) [mask peptide M14], the binding result is listed as “binds”.
The same measure, in the same setting: with CTMPYHIHSIGLC (Selected by phage display (Screen 2)) [mask peptide M7] the entry was “binds”.

The target of another assay is T1, anti-PTK7 antibody Ab181. Kind of assay: phage display selection against Ab181, X15/X19 library.
Take B2: the binding result is “binds”.
In the case of B3, the binding result is reported as “binds”.
